This note sets out measurements from publication PMC8012256.

The target of the assay is cross-linked CA A14C/E45C/W184A/M185A hexamer (HIV-1). Nature of the assay: crystal structure.

In the case of “Sec24C(228–242) peptide (from UniProt P53992-1 228-242)”, the stoichiometry N (Sec24C(228–242) molecules per CA hexamer) was 6.

As usually defined, the stoichiometry N is the number of molecules, sites or subunits per partner or assembly. For the substance “cross-linked CA A14C/E45C/W184A/M185A hexamer (complex)”, the stoichiometry N stood at 6.
